# Test results taken from patent US20190367619A1 (ARGENX, published 2019).
# Experiments:
# [1] = target: T1, human galectin-10 as coated in ELISA (soluble galectin-10; tag not given) (human, UniProt Q05315 1-142, limits assumed); assay: ELISA, scFv periplasmic extract on coated soluble galectin-10, anti-Myc-HRP
# T1 construct: also called coated galectin-10; Gal10
# T1 sequence: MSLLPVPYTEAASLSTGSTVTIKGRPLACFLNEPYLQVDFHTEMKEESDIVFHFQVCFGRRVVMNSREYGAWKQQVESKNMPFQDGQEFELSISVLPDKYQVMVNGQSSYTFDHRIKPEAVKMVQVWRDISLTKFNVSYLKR
# Experimental: In order to test the binding capacity of the scFvs to galectin-10, an ELISA binding assay was established. Briefly, a Maxisorp plate was coated with soluble galectin-10 (1 μg/mL), then blocked with casein, before being incubated with the periplasmic extract (dilution 1/5 in PBS) containing the scFv-Myc. Detection of the binder was carried out with an anti-Myc-HRP antibody. Absorbance was measured at 450 nm (reference at 620 nm) with Tecan instrument. A significant number of galectin-10 scFv binders were isolated after the second round of selection (45-87% of binders).
# human galectin-10-His = target: T2, human galectin-10-His (human); assay: ELISA, Gal10-His coated at 1 ug/mL, VHH titrated, anti-Myc-HRP
# T2 construct: Whether the last M of the tag is the start Met of galectin-10 is not clear; also called human Gal10-HIS; humanGal10-His
# T2 chain: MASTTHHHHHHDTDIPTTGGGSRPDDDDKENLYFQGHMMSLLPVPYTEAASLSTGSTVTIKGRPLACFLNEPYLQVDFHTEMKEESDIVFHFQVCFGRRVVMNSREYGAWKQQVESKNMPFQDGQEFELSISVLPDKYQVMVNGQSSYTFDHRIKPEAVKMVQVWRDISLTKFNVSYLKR
# Experimental: (§1) The binding capacity of the 15 VHH clones was analysed by ELISA. Briefly, a Maxisorp plate was coated overnight with human or cynomolgus WGS or YRT isoforms galectin-10-His at 1 μg/mL and blocked with PBS 1% casein, before being incubated with a serial dilution of the VHH (from 4 μM, dilution 1/3, 12 points of dilutions). […] Absorbance was measured at 450 nm (reference at 620 nm) with Tecan instrument. Finally, the raw data (OD values) were plotted on GraphPad Prism 7.01. […] As a positive control, clone 1D06 from the previous human specific panel was included.
# [2] = target: T3, human galectin-10-His (recombinant human galectin-10 with TEV-cleavable N-terminal His-tag) (human); assay: SPR Biacore T3000, scFv-hFc captured by anti-human Fc, galectin-10-His as analyte
# T3 construct: SEC-MALLS: dimer in solution; also called Gal10-His; humanGal10-His
# T3 chain: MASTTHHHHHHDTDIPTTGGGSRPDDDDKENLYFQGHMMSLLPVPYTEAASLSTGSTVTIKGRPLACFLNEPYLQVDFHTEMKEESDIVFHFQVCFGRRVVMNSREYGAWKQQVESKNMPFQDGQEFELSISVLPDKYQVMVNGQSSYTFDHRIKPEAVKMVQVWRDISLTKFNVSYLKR
# Experimental: In order to determine the binding properties (on-rate/off-rate) of the scFv-human Fc panel, their binding capacity to galectin-10 was analyzed on Biacore T3000. For this purpose, a capture approach was set up. A CM5 Chip was coated with polyclonal anti-human Fc at 8000 RU, then a fixed concentration of the scFv-human Fc panel (1.5 μg/mL), diluted in HBS-EP pH7.4, were captured to reach a binding signal around 150 RU. Finally, a serial dilution of galectin-10-His (serial dilution, 1 over 2 from 5 μg/mL, 6 points of dilution) diluted in HBS-EP pH7.4 was injected. Raw data were analyzed via BIA evaluation software with a blank subtraction (4-3). The kd/KD and Rmax of each scFv-human Fc for galectin-10-His was determined using the Fit Kinetics simultaneous ka/kd/Binding with mass transfer/Local Rmax on BIA evaluation software.
# [3] = target: T3, human galectin-10-His (recombinant …); assay: ELISA, scFv-hFc on coated galectin-10-His (0.2 ug/mL)
# Experimental: In a similar setup to that used during the initial screening, the relative binding properties of the 12 scFv-human Fc clones were analyzed by ELISA. Briefly, a Maxisorp plate was coated with galectin-10-His at 0.2 μg/mL and blocked with casein, before being incubated with a serial dilution of the scFv-human Fc fusion molecules. After several washing steps, detection of the bound scFv-human Fc was carried out with an anti-human Fc-HRP antibody. Absorbance was measured at 450 nm (reference at 620 nm) with Tecan instrument. Finally, the raw data (OD values) were plotted on GraphPad Prism 7.01. The EC50 value of each compound was calculated with a non-linear regression (log(agonist) vs. response Variable slope (four parameters)).
# [4] = target: T4, cynomolgus galectin-10-His, YRT isoform (cynomolgus); assay: ELISA, Gal10-His coated at 1 ug/mL, VHH titrated, anti-Myc-HRP
# T4 construct: not shown: His tag
# T4 chain: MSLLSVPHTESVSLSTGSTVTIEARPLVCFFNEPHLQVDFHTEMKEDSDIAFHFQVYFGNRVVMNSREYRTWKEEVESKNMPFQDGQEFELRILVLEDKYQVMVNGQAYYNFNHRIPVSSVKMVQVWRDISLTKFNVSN
# Experimental: as §1
binder,measurement,setting,value
"scFv 2B11 (periplasmic extract, Myc-tagged) (scFv, not shown: small tags and cut ends) scFv: QVQLQESGPGLVKPSQTLSLTCTVSGGSITTNYYYWSWIRQPPGKGLEWMGAIAYSGSTYYSPSLKSRTSISRDTSKNQFTLQLSSVTPEDTAVYYCARAPYGISREYDYWGQGTQVTVSSGGGGSGGGGSGGGGSHSAVTQPSAVSVSLGQTARITCQGGKFGRYYASWYQQKPGQAPVLVIYKDSERPSGIPERFSGSSSGDTATLSISGAQAEDEADYFCQSGRSSDNAVFGGGTHLTVL",PERI-ELISA binding (OD values),[1],3.79 OD
"scFv 6F11 (periplasmic extract, Myc-tagged) (scFv, not shown: small tags and cut ends, also called 6F011) scFv: QVQRQESGPGLVKPSQTLSVTCTVSGGSITTGPYSWSWIRQPPGKGLEWIGYIGYSGSTYYSPSLKSRTSISRDTSNNQFSLQLSSVTPEDTAVYYCARSRSSPTTFGMDYWGKGTLVTVSSGGGGSGGGGSGGGGSSSALTQPSAVSVSLGQTARITCQGGDFGRYYVAWYTQKPGQAPVLVIYQDSERPSGIPERFSGSSSGDTATLTISGAQAEDEAEYYCQSGISSDNIVFGGGTHLTVL",PERI-ELISA binding (OD values),[1],3.76 OD
"scFv 2E11 (periplasmic extract, Myc-tagged) (scFv, not shown: small tags and cut ends) scFv: EVQLVESGGGLVQPGGSLRLSCAASGFTFSSYAMSWVRQAPGKGLEWVSPINSGSDSASYVDSVKGRFTISRDNAKNTLYLQMNSLKPEDTAVYYCAKARTSVVAGGMDYWGKGTLVTVSSGGGGSGGGGSGGGGSQSALTQPSAVSVSLGQTARITCQGGKFGSYYVSWYQQKPGQAPVMVIYKDNERPSGIPERFSGSSSGSTSTLTISGAQAEDEGTYYCQSGSSSDNIVFGGGTELTVF",PERI-ELISA binding (OD values),[1],3.51 OD
"VHH clone 13C03 (VHH, Purified VHH-Myc-His from E. coli; not shown: Myc and His tags of the phagemid vector) VHH: QVQLVESGGGLVQPGGSLRLSCAASGSIFSISRMGWYRQAPGKQRELVAIIFSDASTDYADSVKGRFTISRSNAKNTVYLQMNSLKPEDTAVYYCKSVLRAAGYGYFNQYWGQGTQVTVSS",Bmax (OD values),human galectin-10-His,2 OD
same,EC50,human galectin-10-His,30.6 nM
"3A03 scFv-human Fc (Fc fusion, about 100 kDa on SDS-PAGE; also called 3A03 ScFv-hFc; not shown: CH2-CH3 constant domains of human IgG1 (vector pUPEX50)) scFv: QVQLVESGGGLVQPGGSLRLSCATSGFTFSVYAMSWVRQAPGKGLEWVADINTSGDSTTYADSVKGRFTISRDNAKNTLYLQMNSLKPEDTAVYYCANRYTQERGQGTQVTVSSGGGGSGGGGSGGGGSDVVLTQTPGSLSVVPGEAASISCKPGRTLVHTDGRTYLYWLQQKPGQRPQLLIYQVSNRGSGVPDRFTGSGSGTDFTLKISGVKAEDAGVYYCAQATYYPLTFGSGTRLEIK",Kd,[2],1.56 nM
same,koff,[2],0.0111 s⁻¹
same,Bmax (OD values),[3],1.81 OD
same,EC50,[3],0.06 nM
"scFv 5E12 (periplasmic extract, Myc-tagged) (scFv, not shown: small tags and cut ends) scFv: QLQLVESGGGLVQPGGSLRLSCVASGFTFRNYPMTWVRQAPGKGPEWVSAINGGGDIPYYADSVKGRFTISRDNAKNTVYLQMDSLKPEDTAMYYCAKQKWGYDPRRTDFEFRGQGTQVTVSSGGGGSGGGGSGGGGSETVPTQSPSSVTASVGEKVTITCKSSQSVRIESNHKTYLNWYQQRPGRGPRLLIYDASSRESGIPDRFSGSGSTSDFTLTISSVQPEDAAVYYCQQAYAAPTFGQGTKLEIK",PERI-ELISA binding (OD values),[1],2.42 OD
"5E12 scFv-human Fc (Fc fusion, about 100 kDa on SDS-PAGE; also called 5E12 ScFv-hFc; not shown: CH2-CH3 constant domains of human IgG1 (vector pUPEX50)) scFv: QLQLVESGGGLVQPGGSLRLSCVASGFTFRNYPMTWVRQAPGKGPEWVSAINGGGDIPYYADSVKGRFTISRDNAKNTVYLQMDSLKPEDTAMYYCAKQKWGYDPRRTDFEFRGQGTQVTVSSGGGGSGGGGSGGGGSETVPTQSPSSVTASVGEKVTITCKSSQSVRIESNHKTYLNWYQQRPGRGPRLLIYDASSRESGIPDRFSGSGSTSDFTLTISSVQPEDAAVYYCQQAYAAPTFGQGTKLEIK",Kd,[2],4.73 nM
same,koff,[2],0.00177 s⁻¹
same,Bmax (OD values),[3],1.84 OD
same,EC50,[3],0.25 nM
"VHH clone 13E09 (VHH, Purified VHH-Myc-His from E. coli; not shown: Myc and His tags of the phagemid vector) VHH: QVQVQESGGGLVQAGNSLRLSCAASGRTFSSYHMMWFRQAPGKEREFVAAIAWRGGTYCANSVKGRCTISRDNAKDTVYLQMNSLKPEDTAVYFCAASLRYVFDPSAMDYWGKGTLVTVSS",Bmax (OD values),human galectin-10-His,1.8 OD
same,EC50,human galectin-10-His,106 nM
same,Bmax (OD values),[4],3 OD
same,EC50,[4],66.9 nM
"VHH clone 13B06 (VHH, Purified VHH-Myc-His from E. coli; not shown: Myc and His tags of the phagemid vector) VHH: QVQLVESGGGLVQAGGSLRLSCAASGRTFSTYSMAWFRQAPGKEREFVAAITRSGGNTYADSVKGRFTISRDNAKNTVTLQMNSLKPEDTAAYHCAAGGTYSFVPRSYNYWGQGTQVTVSS",Bmax (OD values),human galectin-10-His,1 OD
same,Bmax (OD values),[4],2 OD
"VHH clone 13C04 (VHH, Purified VHH-Myc-His from E. coli; not shown: Myc and His tags of the phagemid vector) VHH: ELQVVESGGGLVQAGGSLRLSCAASGRTFSTYSMAWFRQAPGKEREFVAAITRSGGNTYADSVKGRFTISRDNAKNTVTLQMNSLKPEDTAAYHCAAGGTYSFVPRSYNYWGQGTQVTVSS",Bmax (OD values),human galectin-10-His,1.1 OD
same,Bmax (OD values),[4],2.5 OD
"scFv 6F05 (periplasmic extract, Myc-tagged) (scFv, not shown: small tags and cut ends, also called 6F5) scFv: QLQLVESGGGLVQPGGSLRLSCAASGFTFSSYAMSWVRQAPGKGLEWVSAINSGGGSTSYADSVKGRFTISRDNAKNTLYLQMNSLKPEDTAVYYCATPGDRLWYYRYDYWGQGTQVTVSSGGGGSGGGGSGGGGSQAGLTQPPSVSGTLGKAVTISCAGTSSDIGYGNYVSWYQQLPGTAPKLLIYKVSRRASGVPDRFSGSKSGNTASLSISGLQSEDEADYYCASYRYRNNVVFGGGTHLTVL",PERI-ELISA binding (OD values),[1],3.83 OD
"1A12 scFv-human Fc (Fc fusion, about 100 kDa on SDS-PAGE; also called 1A12 ScFv-hFc; not shown: CH2-CH3 constant domains of human IgG1 (vector pUPEX50)) scFv: QVQLVESGGGLVQPGGSLRVSCAASGFTFSSYYMSWVRQAPGKGLEWVSAINSGGGSTYYADSVKGRFTISRDNAKNTLYLQMNSLKSEDTAVYYCVQNGGIWSFGSWGQGTQVTVSSGGGGSGGGGSGGGGSSSALTQPSAISVSLGQTARITCQGGNFGYYYVSWYQQKPGQAPVQVIYGDSNRPSGIPERFSGSSSGGTATLTISGAQAEDEADYYCLSYESSDYPVFGGGTHLTVL",Kd,[2],11.7 nM
same,koff,[2],0.00315 s⁻¹
same,Bmax (OD values),[3],0.409 OD
"scFv 1A12 (periplasmic extract, Myc-tagged) (scFv, not shown: small tags and cut ends) scFv: QVQLVESGGGLVQPGGSLRVSCAASGFTFSSYYMSWVRQAPGKGLEWVSAINSGGGSTYYADSVKGRFTISRDNAKNTLYLQMNSLKSEDTAVYYCVQNGGIWSFGSWGQGTQVTVSSGGGGSGGGGSGGGGSSSALTQPSAISVSLGQTARITCQGGNFGYYYVSWYQQKPGQAPVQVIYGDSNRPSGIPERFSGSSSGGTATLTISGAQAEDEADYYCLSYESSDYPVFGGGTHLTVL",PERI-ELISA binding (OD values),[1],2.13 OD
"scFv 6A11 (periplasmic extract, Myc-tagged) (scFv, not shown: small tags and cut ends) scFv: ELQLVESGGGLVQPGGSLRLSCSASGFTFGAYAMNWVRQAPGKGLEWVSGVNSGGGLTSYGESVKGRFTISRDNAKNTLYLQMNRLNPDDTAVYYCAKSKRGAVVAGTGDDYWGQGTQVTVSSGGGGSGGGGSGGGGSSSALTQPSAVSVSLGQTARITCQGGNFGRYYVSWYQQKPGQAPVLVIYKDSERPSGIPERFSGSSSGDTATLTISGAQAEDEADYYCQSGSSSDNAVFGGGTHLTVL",PERI-ELISA binding (OD values),[1],2.35 OD
